Experimental findings from patent publication US12331334B2 are described below.

The assay addresses human C3 FRET peptide.

Substance “WT uPA with C122S - HSA (No PP) (enzyme)” came in with an Activity (nM EDANS/min/µL sample), expi293 supernatant on 40 µM human C3 FRET peptide (nM EDANS/min/µL sample) of 0.1.

In turn, “WT uPA with C122S-Fc (No PP) (Fc fusion)” gave an Activity (nM EDANS/min/µL sample), expi293 supernatant on 40 µM human C3 FRET peptide (nM EDANS/min/µL sample) of 0.
